Data reported in patent publication US20140178375A1 (TRUSTEES OF THE UNIVERSITY PF PENNSYLVANIA, published 2014).

What was measured:
human EGFR on NE91 cells [1] = molecular target: T1, human EGFR on NE91 cells (human, UniProt P00533 25-1210); experiment: FACS, 100 ug S22-Fc on 1x10^5 cells, anti-His detection
T1 construct: whole, on cells; also called epidermal growth factor receptor
Protocol: FACS analysis was used to detect binding of S22-Fc to HER2-expressing cell lines. Purified S22-Fc was used in FACS experiments to stain cells with different expression levels of HER2 and EGFR. Initially, 1×10⁵ cells were incubated with 100 μg S22-Fc for 30 minutes on ice. The cells were then washed and incubated with his-tag-specific rabbit antisera and secondary Alexa488-conjugated anti-rabbit antibodies, used sequentially. As a negative control, parallel cell preparations were exposed to only his-tag-specific rabbit antisera and secondary antibodies.

[2] = molecular target: T2, human HER2 on T6-17 cells (human, UniProt P04626 23-1255); experiment: FACS on T6-17 cells expressing human HER2, detected by anti-his tag and secondary antibodies; control (anti-his tag and secondary antibodies only) has Geo mean 3.99
T2 construct: whole, on cells; also called HER2/neu; human epidermal growth factor receptor 2

human EGFR on NE91 cells [3] = molecular target: T1, human EGFR on NE91 cells; experiment: FACS on NE91 cells
[4] = molecular target: T2, human HER2 on T6-17 cells; experiment: FACS on T6-17 cells

Binder	binding result (human EGFR on NE91 cells [1])	FACS Geo mean [2]	binding result (human EGFR on NE91 cells [3])	binding result [4]
S22-Fc (Fc fusion, S22 peptide, glycine-serine linker, human IgG1 Fc (hinge part, CH2, CH3) and C-terminal His tag; Expressed in E. coli and purified on Ni-sepharose; also called S22-Fc fusion protein) MAYCFPDEEGACYGGGGGSDKTHTCPPCPAPELLGGPSVFLFPPKPKDTLMISRTPEVTCVVVDVSHEDPEVKFNWYVDGVEVHNAKTKPREEQYNSTYRVVSVLTVLHQDWLNGKEYKCKVSNKALPAPIEKTISKAKGQPREPQVYTLPPSRDELTKNQVSLTCLVKGFYPSDIAVEWESNGQPENNYKTTPPVLDSDGSFFLYSKLTVDKSRWQQGNVFSCSVMHEALHNHYTQKSLSLSLEHHHHHH	binds	27.2		
S22-FcT322A (Fc fusion) MAYCFPDEEGACYGGGGGSDKTHTCPPCPAPELLGGPSVFLFPPKPKDTLMISRTPEVTCVVVDVSHEDPEVKFNWYVDGVEVHNAKTKPREEQYNSAYRVVSVLTVLHQDWLNGKEYKCKVSNKALPAPIEKTISKAKGQPREPQVYTLPPSRDELTKNQVSLTCLVKGFYPSDIAVEWESNGQPENNYKTTPPVLDSDGSFFLYSKLTVDKSRWQQGNVFSCSVMHEALHNHYTQKSLSLSLEHHHHHH			binds	binds
LS22FcT322AG7 (Fc fusion, It has the N-terminal MLCGGGG before the S22 peptide, the T322A Fc and a His tag; also called S22-FcT322A#2; S22FcT322A#2) MLCGGGGYCFPDEEGACYGGGGGSDKTHTCPPCPAPELLGGPSVFLFPPKPKDTLMISRTPEVTCVVVDVSHEDPEVKFNWYVDGVEVHNAKTKPREEQYNSAYRVVSVLTVLHQDWLNGKEYKCKVSNKALPAPIEKTISKAKGQPREPQVYTLPPSRDELTKNQVSLTCLVKGFYPSDIAVEWESNGQPENNYKTTPPVLDSDGSFFLYSKLTVDKSRWQQGNVFSCSVMHEALHNHYTQKSLSLSLEHHHHHH		39.1	binds	
LS22FcG7 (Fc fusion, Wild type Fc fragment with the N-terminal MLCGGGG before the S22 peptide, and a His tag) MLCGGGGYCFPDEEGACYGGGGGSDKTHTCPPCPAPELLGGPSVFLFPPKPKDTLMISRTPEVTCVVVDVSHEDPEVKFNWYVDGVEVHNAKTKPREEQYNSTYRVVSVLTVLHQDWLNGKEYKCKVSNKALPAPIEKTISKAKGQPREPQVYTLPPSRDELTKNQVSLTCLVKGFYPSDIAVEWESNGQPENNYKTTPPVLDSDGSFFLYSKLTVDKSRWQQGNVFSCSVMHEALHNHYTQKSLSLSLEHHHHHH		51		
LS22FcT322AS7 (Fc fusion) S22 peptide-Fc fusion chain with C-terminal His tag: MLCGGGSYCFPDEEGACYGGGGGSDKTHTCPPCPAPELLGGPSVFLFPPKPKDTLMISRTPEVTCVVVDVSHEDPEVKFNWYVDGVEVHNAKTKPREEQYNSAYRVVSVLTVLHQDWLNGKEYKCKVSNKALPAPIEKTISKAKGQPREPQVYTLPPSRDELTKNQVSLTCLVKGFYPSDIAVEWESNGQPENNYKTTPPVLDSDGSFFLYSKLTVDKSRWQQGNVFSCSVMHEALHNHYTQKSLSLSLEHHHHHH		28.7		
